Reference: patent publication US20260028391A1
“And” between values parts separate entries of the source, which are not always exact repeats. Equal entries are not always repeated.

Assays:
[1] = biological target: RSV-B B18537/62 F protein (RSV B, strain B18537/62) (UniProt P13843); assay: cell-based or functional assay
[2] = biological target: RSV-B B9320 F protein (RSV B, strain B9320); assay: cell-based or functional assay
[3] = biological target: RSV-long strain fusion glycoprotein (F) (RSV, long strain) (UniProt P12568); assay: cell-based or functional assay
[4] = biological target: biot-MPV-F D280N (metapneumovirus (MPV)); assay: BLI (Octet), biotinylated F on SA sensors, mAb 5 µg/ml; batch KYT
[5] = biological target: biot-MPV-F wt (metapneumovirus (MPV)); assay: as above
[6] = biological target: biot-RSV-F wt (respiratory syncytial virus (RSV)); assay: as above
[7] = biological target: biot-MPV-F D280N (metapneumovirus (MPV)); assay: BLI (Octet), biotinylated F on SA sensors, mAb 5 µg/ml; forced deamidation sample, day 0
[8] = biological target: biot-MPV-F wt (metapneumovirus (MPV)); assay: as above
[9] = biological target: biot-RSV-F wt (respiratory syncytial virus (RSV)); assay: as above
[10] = biological target: biot-MPV-F D280N (metapneumovirus (MPV)); assay: BLI (Octet), biotinylated F on SA sensors, mAb 5 µg/ml; forced deamidation sample, day 7 at 40 °C
[11] = biological target: biot-MPV-F wt (metapneumovirus (MPV)); assay: as above
[12] = biological target: biot-RSV-F wt (respiratory syncytial virus (RSV)); assay: as above
[13] = biological target: biot-MPV-F D280N (metapneumovirus (MPV)); assay: BLI (Octet), biotinylated F on SA sensors, mAb 5 µg/ml; forced deamidation sample, day 13 at 40 °C
[14] = biological target: biot-MPV-F wt (metapneumovirus (MPV)); assay: as above
[15] = biological target: biot-RSV-F wt (respiratory syncytial virus (RSV)); assay: as above
[16] = biological target: biot-RSV-F wt (respiratory syncytial virus (RSV)); assay: BLI, SA sensor loaded with biot-RSV-F wt, mAb 5 ug/ml, 4 min association, 6 min dissociation
[17] = biological target: biot-MPV-F wt (metapneumovirus (MPV)); assay: BLI, SA sensor loaded with biot-MPV-F wt, mAb 5 ug/ml, 4 min association, 6 min dissociation
[18] = biological target: biot-MPV-F D280N (metapneumovirus (MPV)); assay: BLI, SA sensor loaded with biot-MPV-F D280N (sheet title 'MPV-G D280N'), mAb 5 ug/ml, 4 min association, 6 min dissociation
[19] = biological target: fusion glycoprotein of Human Metapneumovirus-GFP CAN97-83 (Vira Tree M121) (human metapneumovirus CAN97-83) (UniProt Q6WB98); assay: cell-based or functional assay
[20] = biological target: fusion glycoprotein of Human metapneumovirus-TN/96-213 (BEI NR-22243) (human metapneumovirus TN/96-213); assay: cell-based or functional assay
[21] = biological target: fusion glycoprotein of the MPV D280 used in the neutralization assay of Example 3 (metapneumovirus (strain not stated)); assay: cell-based or functional assay
[22] = biological target: MPV fusion glycoprotein MPV-F D280 (metapneumovirus (strain not stated)); assay: SPR; sensors loaded with F protein, mAb in solution
[23] = biological target: MPV fusion glycoprotein MPV-F N280 (metapneumovirus (strain not stated)); assay: as above
[24] = biological target: MPV fusion glycoprotein MPV-F D280 (metapneumovirus (strain not stated)); assay: SPR; sensors loaded with MPV-F, mAb in solution (Experiment 3)
[25] = biological target: MPV fusion glycoprotein MPV-F N280 (metapneumovirus (strain not stated)); assay: as above
[26] = biological target: MPV fusion glycoprotein with the D280N mutation (MPV-F N280), recombinant protein loaded on sensors (metapneumovirus (MPV), strain not stated); assay: same manner as Experiment 1, RUN10, MPV-F D280 or MPV-F N280 on the sensors (Example 6, Experiment 3)
[27] = biological target: RSV F A N208Y-N671I (RSV A, strain A2) (UniProt P03420); assay: FACS, % binding to RSV F A variants
[28] = biological target: RSV F A S433P (RSV A, strain A2) (UniProt P03420); assay: FACS, % binding to RSV F A variants
[29] = biological target: RSV F A S433P-G446E (RSV A, strain A2) (UniProt P03420); assay: FACS, % binding to RSV F A variants

B1: MPK190-rFab (Fab, V domains shown)
VH: EVQLVESGGGLVKPGGSLTLSCAASGFSISGYGMNWVRQAPGRGLEWVASISASSTYIYYADSMKGRFTISRDNGKTSLYLQMKSLRAEDTAVYYCARAPIEPPYFDLWGRGTLVTVSS
VL: QSVLTQPPSVSGAPGQRVTISCTGSNSNIGAGYDVHWYQHLPGKAPKVLIYGNNNRPSVVPDRFSGSNSGASASLAISGLQAEDEADYFCQSYDRRLSGPIFGGGTKLTVL
EC50, virus neutralization (Fab testing) [1]: 0.0633 nM
EC50, virus neutralization (Fab testing) [2]: 0.0325 nM
EC50, virus neutralization (Fab testing) [3]: 0.0979 nM

B2: MPK190-rIgG1-LS (antibody, V domains shown)
VH: EVQLVESGGGLVKPGGSLTLSCAASGFSISGYGMNWVRQAPGRGLEWVASISASSTYIYYADSMKGRFTISRDNGKTSLYLQMKSLRAEDTAVYYCARAPIEPPYFDLWGRGTLVTVSS
VL: QSVLTQPPSVSGAPGQRVTISCTGSNSNIGAGYDVHWYQHLPGKAPKVLIYGNNNRPSVVPDRFSGSNSGASASLAISGLQAEDEADYFCQSYDRRLSGPIFGGGTKLTVL
Kd [4]: 0.37 nM
Kd [5]: < 0.001 nM
Kd [6]: 0.0539 nM
Kd [7]: 0.441 nM
Kd [8]: < 0.001 nM
Kd [9]: < 0.001 nM
Kd [10]: 0.6 nM
Kd [11]: 0.0159 nM
Kd [12]: 0.128 nM
Kd [13]: 0.733 nM
Kd [14]: 0.0577 nM
Kd [15]: 0.304 nM
Kd [16]: < 0.001 nM
Kd [17]: < 0.001 nM
Kd [18]: 0.381 nM

B3: MPK15 (antibody, human IgG1, V domains shown)
VH: EVQLVESGGGLVKPGGSLRLSCTVSGITFSDAWMTWVRQAPGKGLEWVGRIKRKVDGETADYAPSVKGRFTISRDDSKSTLYLQMNSLKTEDTGLYYCLTTWSDQFWGQGTLVTVSS
VL: QSVVTQEPSLTVSPGGTVTLTCDSSSGAVTRGHYPFWFQQKPGQVPRTLIYDTSKKHSWTPARFSGSLLGDKAVLTLSGAQPEDEADYYCLLTYSGVRVFGGGTKLTVL
MPV D280 Neutralization by MPK15 [19]: 5.8
MPV D280 Neutralization by MPK15 [20]: 15.3
MPV D280 Neutralization - IC50 [21]: 3.81 ng/mL and 3.4 ng/mL
Kd [22]: 0.0784 nM
Kd [23]: 0.0574 nM
Kd [24]: 0.071 nM
Kd [25]: 0.072 nM
Kd [26]: 0.073 nM

B4: MPK65-v2-v1.2 (antibody, V domains shown)
VH: QVPLVQSGAEVKKPGESLKISCKGSGYSFINYWIGWVRQMPGKGLEWMGVIYPFDSDTKYSPSFQGHVTISADKSSNTAYVQWSSLKASDTAMYYCARFTFGIAVVTDDVSGEGQAFEIWGQGTMVTVSS
VL: QIVMMQSPATLSVSPGERATLSCRASQSVAGNLAWYQQRPGQAPRLLIYGASTRATGVPARFSGSGSETEFTLTISSLQSEDFAVYYCHQYSNLPQAFGQGTRLDIK
% binding [27]: 0.38%
% binding [28]: 31.7%
% binding [29]: 32.9%
